Test results: patent US20080206239A1 (ANTITOPE, published 2008)

Biological target: human TNFα (human, UniProt P01375 77-233)
Test: cell-based or functional assay

Chain of human TNFα (P01375 77-233 limits assumed): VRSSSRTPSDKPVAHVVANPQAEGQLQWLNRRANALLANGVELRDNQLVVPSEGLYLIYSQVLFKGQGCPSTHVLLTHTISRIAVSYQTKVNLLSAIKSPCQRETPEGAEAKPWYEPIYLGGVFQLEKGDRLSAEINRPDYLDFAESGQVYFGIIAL

B1: antibody of heavy chain SEQ. ID. No. 1 and light chain SEQ. ID. No. 4 (antibody, human IgG1, V domains shown)
VH: EVKLEESGGGLVQPGGSMKLSCVASGFIFSNHWMNWVRQSPEKGLEWVAEIRSKSINSATHYAESVKGRFTISRDDSKSAVYLQMTDLRTEDTGVYYCSRNYYGSTYDYWGQGTTLTVSS
VL: DILLTQSPAILSLSPGERATLSCRASQFVGSSIHWYQQKTNQSPKLLIKYASESMSGIPSRFSGSGSGTDFTLTINSLESEDAADYYCQQSHSWPFTFGQGTNLEIK
Ratio of Activities compared to Chimeric Antibody (fold difference, WEHI-164 protection assay at 25 ng/ml): 1.51 fold

B2: Composite Human Antibody 7/10 (i.e. containing SEQ. ID. No.s 7 and 10) (antibody, human IgG1, V domains shown)
VH: EVQLVESGGGLVQPGGSLKLSCAASGFIFSNHWMNWVRQAPGKGLEWVAEIRSKSINSATHYAESVKGRFTISRDDSKSIVYLQMNSLKTEDTGVYYCSRNYYGSTYDYWGQGTTVTVSS
VL: DILLTQSPATLSLSPGERATLSCRASQFVGSSIHWYQQKTNQSPKLLIKYASESMSGIPSRFSGSGSGTDFTLTINSLEAEDAADYYCQQSHSWPFTFGQGTRLEIK
Ratio of Activities compared to Chimeric Antibody (fold difference, WEHI-164 protection assay at 25 ng/ml): 0.98 fold

B3: Composite Human Antibody of heavy chain SEQ. ID. No. 6 and light chain SEQ. ID. No. 4 (antibody, human IgG1, V domains shown)
VH: EVQLVESGGGLVQPGGSLKLSCVASGFIFSNHWMNWVRQAPGKGLEWVAEIRSKSINSATHYAESVKGRFTISRDDSKSIVYLQMNSLKTEDTGVYYCSRNYYGSTYDYWGQGTTVTVSS
VL: DILLTQSPAILSLSPGERATLSCRASQFVGSSIHWYQQKTNQSPKLLIKYASESMSGIPSRFSGSGSGTDFTLTINSLESEDAADYYCQQSHSWPFTFGQGTNLEIK
Ratio of Activities compared to Chimeric Antibody (fold difference, WEHI-164 protection assay at 25 ng/ml): 1.38 fold

B4: Composite Human Antibody of heavy chain SEQ. ID. No. 3 and light chain SEQ. ID. No. 9 (antibody, human IgG1, V domains shown)
VH: EVQLVESGGGLVQPGGSLKLSCVASGFIFSNHWMNWVRQAPGKGLEWVAEIRSKSINSATHYAESVKGRFTISRDDSKSIVYLQMTDLRTEDTGVYYCSRNYYGSTYDYWGQGTTVTVSS
VL: DILLTQSPATLSLSPGERATLSCRASQFVGSSIHWYQQKTNQSPKLLIKYASESMSGIPSRFSGSGSGTDFTLTINSLESEDAADYYCQQSHSWPFTFGQGTRLEIK
Ratio of Activities compared to Chimeric Antibody (fold difference, WEHI-164 protection assay at 25 ng/ml): 2.14 fold

B5: Composite Human Antibody 7/4 (antibody, human IgG1, V domains shown)
VH: EVQLVESGGGLVQPGGSLKLSCAASGFIFSNHWMNWVRQAPGKGLEWVAEIRSKSINSATHYAESVKGRFTISRDDSKSIVYLQMNSLKTEDTGVYYCSRNYYGSTYDYWGQGTTVTVSS
VL: DILLTQSPAILSLSPGERATLSCRASQFVGSSIHWYQQKTNQSPKLLIKYASESMSGIPSRFSGSGSGTDFTLTINSLESEDAADYYCQQSHSWPFTFGQGTNLEIK
Ratio of Activities compared to Chimeric Antibody (fold difference, WEHI-164 protection assay at 25 ng/ml): 1.05 fold

B6: Composite Human Antibody 7/9 (antibody, human IgG1, V domains shown)
VH: EVQLVESGGGLVQPGGSLKLSCAASGFIFSNHWMNWVRQAPGKGLEWVAEIRSKSINSATHYAESVKGRFTISRDDSKSIVYLQMNSLKTEDTGVYYCSRNYYGSTYDYWGQGTTVTVSS
VL: DILLTQSPATLSLSPGERATLSCRASQFVGSSIHWYQQKTNQSPKLLIKYASESMSGIPSRFSGSGSGTDFTLTINSLESEDAADYYCQQSHSWPFTFGQGTRLEIK
Ratio of Activities compared to Chimeric Antibody (fold difference, WEHI-164 protection assay at 25 ng/ml): 0.95 fold

B7: Composite Human Antibody of heavy chain SEQ. ID. No. 5 and light chain SEQ. ID. No. 11 (antibody, human IgG1, V domains shown)
VH: EVQLVESGGGLVQPGGSLKLSCVASGFIFSNHWMNWVRQAPGKGLEWVAEIRSKSINSATHYAESVKGRFTISRDDSKSIVYLQMNDLKTEDTGVYYCSRNYYGSTYDYWGQGTTVTVSS
VL: DILLTQSPATLSLSPGERATLSCRASQFVGSSIHWYQQKTDQSPKLLIKYASESMSGIPSRFSGSGSGTDFTLTINSLEAEDAADYYCQQSHSWPFTFGQGTRLEIK
Ratio of Activities compared to Chimeric Antibody (fold difference, WEHI-164 protection assay at 25 ng/ml): 196 fold

B8: Composite Human Antibody of heavy chain SEQ. ID. No. 6 and light chain SEQ. ID. No. 11 (antibody, human IgG1, V domains shown)
VH: EVQLVESGGGLVQPGGSLKLSCVASGFIFSNHWMNWVRQAPGKGLEWVAEIRSKSINSATHYAESVKGRFTISRDDSKSIVYLQMNSLKTEDTGVYYCSRNYYGSTYDYWGQGTTVTVSS
VL: DILLTQSPATLSLSPGERATLSCRASQFVGSSIHWYQQKTDQSPKLLIKYASESMSGIPSRFSGSGSGTDFTLTINSLEAEDAADYYCQQSHSWPFTFGQGTRLEIK
Ratio of Activities compared to Chimeric Antibody (fold difference, WEHI-164 protection assay at 25 ng/ml): 134 fold

B9: Composite Human Antibody of heavy chain SEQ. ID. No. 5 and light chain SEQ. ID. No. 9 (antibody, human IgG1, V domains shown)
VH: EVQLVESGGGLVQPGGSLKLSCVASGFIFSNHWMNWVRQAPGKGLEWVAEIRSKSINSATHYAESVKGRFTISRDDSKSIVYLQMNDLKTEDTGVYYCSRNYYGSTYDYWGQGTTVTVSS
VL: DILLTQSPATLSLSPGERATLSCRASQFVGSSIHWYQQKTNQSPKLLIKYASESMSGIPSRFSGSGSGTDFTLTINSLESEDAADYYCQQSHSWPFTFGQGTRLEIK
Ratio of Activities compared to Chimeric Antibody (fold difference, WEHI-164 protection assay at 25 ng/ml): 1.32 fold

B10: antibody of heavy chain SEQ. ID. No. 1 and light chain SEQ. ID. No. 11 (antibody, human IgG1, V domains shown)
VH: EVKLEESGGGLVQPGGSMKLSCVASGFIFSNHWMNWVRQSPEKGLEWVAEIRSKSINSATHYAESVKGRFTISRDDSKSAVYLQMTDLRTEDTGVYYCSRNYYGSTYDYWGQGTTLTVSS
VL: DILLTQSPATLSLSPGERATLSCRASQFVGSSIHWYQQKTDQSPKLLIKYASESMSGIPSRFSGSGSGTDFTLTINSLEAEDAADYYCQQSHSWPFTFGQGTRLEIK
Ratio of Activities compared to Chimeric Antibody (fold difference, WEHI-164 protection assay at 25 ng/ml): 16.9 fold

B11: Composite Human Antibody of heavy chain SEQ. ID. No. 3 and light chain SEQ. ID. No. 10 (antibody, human IgG1, V domains shown)
VH: EVQLVESGGGLVQPGGSLKLSCVASGFIFSNHWMNWVRQAPGKGLEWVAEIRSKSINSATHYAESVKGRFTISRDDSKSIVYLQMTDLRTEDTGVYYCSRNYYGSTYDYWGQGTTVTVSS
VL: DILLTQSPATLSLSPGERATLSCRASQFVGSSIHWYQQKTNQSPKLLIKYASESMSGIPSRFSGSGSGTDFTLTINSLEAEDAADYYCQQSHSWPFTFGQGTRLEIK
Ratio of Activities compared to Chimeric Antibody (fold difference, WEHI-164 protection assay at 25 ng/ml): 2.51 fold

B12: Composite Human Antibody of heavy chain SEQ. ID. No. 3 and light chain SEQ. ID. No. 11 (antibody, human IgG1, V domains shown)
VH: EVQLVESGGGLVQPGGSLKLSCVASGFIFSNHWMNWVRQAPGKGLEWVAEIRSKSINSATHYAESVKGRFTISRDDSKSIVYLQMTDLRTEDTGVYYCSRNYYGSTYDYWGQGTTVTVSS
VL: DILLTQSPATLSLSPGERATLSCRASQFVGSSIHWYQQKTDQSPKLLIKYASESMSGIPSRFSGSGSGTDFTLTINSLEAEDAADYYCQQSHSWPFTFGQGTRLEIK
Ratio of Activities compared to Chimeric Antibody (fold difference, WEHI-164 protection assay at 25 ng/ml): 15.2 fold

B13: antibody of heavy chain SEQ. ID. No. 1 and light chain SEQ. ID. No. 9 (antibody, human IgG1, V domains shown)
VH: EVKLEESGGGLVQPGGSMKLSCVASGFIFSNHWMNWVRQSPEKGLEWVAEIRSKSINSATHYAESVKGRFTISRDDSKSAVYLQMTDLRTEDTGVYYCSRNYYGSTYDYWGQGTTLTVSS
VL: DILLTQSPATLSLSPGERATLSCRASQFVGSSIHWYQQKTNQSPKLLIKYASESMSGIPSRFSGSGSGTDFTLTINSLESEDAADYYCQQSHSWPFTFGQGTRLEIK
Ratio of Activities compared to Chimeric Antibody (fold difference, WEHI-164 protection assay at 25 ng/ml): 1.28 fold

B14: Composite Human Antibody of heavy chain SEQ. ID. No. 7 and light chain SEQ. ID. No. 11 (antibody, human IgG1, V domains shown)
VH: EVQLVESGGGLVQPGGSLKLSCAASGFIFSNHWMNWVRQAPGKGLEWVAEIRSKSINSATHYAESVKGRFTISRDDSKSIVYLQMNSLKTEDTGVYYCSRNYYGSTYDYWGQGTTVTVSS
VL: DILLTQSPATLSLSPGERATLSCRASQFVGSSIHWYQQKTDQSPKLLIKYASESMSGIPSRFSGSGSGTDFTLTINSLEAEDAADYYCQQSHSWPFTFGQGTRLEIK
Ratio of Activities compared to Chimeric Antibody (fold difference, WEHI-164 protection assay at 25 ng/ml): 106 fold

B15: primary Composite Human Antibody (heavy chain SEQ. ID. No. 3 and light chain SEQ. ID. No. 4) (antibody, human IgG1, V domains shown)
VH: EVQLVESGGGLVQPGGSLKLSCVASGFIFSNHWMNWVRQAPGKGLEWVAEIRSKSINSATHYAESVKGRFTISRDDSKSIVYLQMTDLRTEDTGVYYCSRNYYGSTYDYWGQGTTVTVSS
VL: DILLTQSPAILSLSPGERATLSCRASQFVGSSIHWYQQKTNQSPKLLIKYASESMSGIPSRFSGSGSGTDFTLTINSLESEDAADYYCQQSHSWPFTFGQGTNLEIK
Ratio of Activities compared to Chimeric Antibody (fold difference, WEHI-164 protection assay at 25 ng/ml): 2.28 fold

B16: antibody of heavy chain SEQ. ID. No. 1 and light chain SEQ. ID. No. 10 (antibody, human IgG1, V domains shown)
VH: EVKLEESGGGLVQPGGSMKLSCVASGFIFSNHWMNWVRQSPEKGLEWVAEIRSKSINSATHYAESVKGRFTISRDDSKSAVYLQMTDLRTEDTGVYYCSRNYYGSTYDYWGQGTTLTVSS
VL: DILLTQSPATLSLSPGERATLSCRASQFVGSSIHWYQQKTNQSPKLLIKYASESMSGIPSRFSGSGSGTDFTLTINSLEAEDAADYYCQQSHSWPFTFGQGTRLEIK
Ratio of Activities compared to Chimeric Antibody (fold difference, WEHI-164 protection assay at 25 ng/ml): 1.31 fold

B17: Composite Human Antibody of heavy chain SEQ. ID. No. 6 and light chain SEQ. ID. No. 10 (antibody, human IgG1, V domains shown)
VH: EVQLVESGGGLVQPGGSLKLSCVASGFIFSNHWMNWVRQAPGKGLEWVAEIRSKSINSATHYAESVKGRFTISRDDSKSIVYLQMNSLKTEDTGVYYCSRNYYGSTYDYWGQGTTVTVSS
VL: DILLTQSPATLSLSPGERATLSCRASQFVGSSIHWYQQKTNQSPKLLIKYASESMSGIPSRFSGSGSGTDFTLTINSLEAEDAADYYCQQSHSWPFTFGQGTRLEIK
Ratio of Activities compared to Chimeric Antibody (fold difference, WEHI-164 protection assay at 25 ng/ml): 1.63 fold

B18: Composite Human Antibody of heavy chain SEQ. ID. No. 5 and light chain SEQ. ID. No. 4 (antibody, human IgG1, V domains shown)
VH: EVQLVESGGGLVQPGGSLKLSCVASGFIFSNHWMNWVRQAPGKGLEWVAEIRSKSINSATHYAESVKGRFTISRDDSKSIVYLQMNDLKTEDTGVYYCSRNYYGSTYDYWGQGTTVTVSS
VL: DILLTQSPAILSLSPGERATLSCRASQFVGSSIHWYQQKTNQSPKLLIKYASESMSGIPSRFSGSGSGTDFTLTINSLESEDAADYYCQQSHSWPFTFGQGTNLEIK
Ratio of Activities compared to Chimeric Antibody (fold difference, WEHI-164 protection assay at 25 ng/ml): 1.28 fold

B19: Composite Human Antibody 5/10 (antibody, human IgG1, V domains shown)
VH: EVQLVESGGGLVQPGGSLKLSCVASGFIFSNHWMNWVRQAPGKGLEWVAEIRSKSINSATHYAESVKGRFTISRDDSKSIVYLQMNDLKTEDTGVYYCSRNYYGSTYDYWGQGTTVTVSS
VL: DILLTQSPATLSLSPGERATLSCRASQFVGSSIHWYQQKTNQSPKLLIKYASESMSGIPSRFSGSGSGTDFTLTINSLEAEDAADYYCQQSHSWPFTFGQGTRLEIK
Ratio of Activities compared to Chimeric Antibody (fold difference, WEHI-164 protection assay at 25 ng/ml): 1.17 fold

B20: Composite Human Antibody of heavy chain SEQ. ID. No. 6 and light chain SEQ. ID. No. 9 (antibody, human IgG1, V domains shown)
VH: EVQLVESGGGLVQPGGSLKLSCVASGFIFSNHWMNWVRQAPGKGLEWVAEIRSKSINSATHYAESVKGRFTISRDDSKSIVYLQMNSLKTEDTGVYYCSRNYYGSTYDYWGQGTTVTVSS
VL: DILLTQSPATLSLSPGERATLSCRASQFVGSSIHWYQQKTNQSPKLLIKYASESMSGIPSRFSGSGSGTDFTLTINSLESEDAADYYCQQSHSWPFTFGQGTRLEIK
Ratio of Activities compared to Chimeric Antibody (fold difference, WEHI-164 protection assay at 25 ng/ml): 1.77 fold
